Patent publication US11781164B2, “Demethylation of reticuline and derivatives thereof with fungal cytochrome P450” (priority 2017, dated 2023)

B1: CYPDN4: cytochrome P450 homolog I1CCX6 from Rhizopus delemar, codon-optimized (protein)
chain: MVKSFLKAESPTDRYKRIIHPVASKGNGFYVSKVPFLWAVYVTNPVVAKQVLLKSDIFPKNHAVFHQIGKDSPFTQFLGLDNVALSNGDVWKKQRKVMNPAFHRSLPIKTMASVVNTLFSVIDNSDGPVLITSAMQNFTLDVLGLAIFGFEFKALQGDPDNWTKTYKTVIESLFDPVMNVFATFDTLLTWVYPKRRECSVAISKMNLKFDELAKQKRAEVKSGAYANVPDHDKDLLTLMLEAMEKGEALTSQDELRHNIAVFFLAGHGTTAHTLSFCFYHLAKNKHIQRKLREEIISVLGDEPVDIVPSLEQMKHMKYMNLVIKENLRMNTPADTLFTRDTVEDINLAGHIIPKDTAISIDINAIHHDPKYWHNPEHFIPERFAEGGEQESHEGLTWLPFSNGSRQCIGMNFSLAEQRLVLAMLVRKYEIDIPKDSIHYERILFDRPGNIAPLSLGLTFTKRY
modifications: Rhizopus delemar
B2: CYPDN34: cytochrome P450 homolog A0A068SBP8 from Lichtheimia corymbifera, codon-optimized (protein, listed as Lichtheimia corymbifera)
chain: MYKAFLDNGIVSSIISTLDNKDISVFLNDPNHAKTRSVALVSFCTVIAAYALSRSRSHSKDKDTPMVPYTWPLIGSSREYRKDPEAFIKKWSSELGDVYKVHLFGRIQTVVSGKHVYCLQKDFDFQQGMSKTFDIWLLLDAPLGGRFTLDKIRHATIKFTRTKMLTNTPCVVKQLIAAEHEMIGDAQTPSEIANLYPLMEHLVAIASATNFVGPGLTKDKDLVETYKHLAVDVGSELGDGNEFLEAFPWISRLRMWYLGKYGNSVDKHRKRLLRAMKPIIDERLAAAENGIENPQDFIQDIIEESEITSGDPDKYILAVRWILVMIASAGHTTTENTTIILYRILQHPEVIDELLEEQRQVLEKHHGPDVKDNEDLATLFTGEVIKDLVKLDSVCRETMRLRSFYIDLPHTYVGKSPLALTNTCTIKPGEDVLLNMWLNHNRTAMQYDGLGDYNEFKPFRFVGLDRSSTKLGGDFLLFGLGTHACPGRWFAMHQTKTILSMLLRRYQITPQETIVFPIGNRSHVPSGKVTFQKRQ
B3: CYPDN7: cytochrome P450 homolog I1CBZ0 from Rhizopus delemar, codon-optimized (protein)
chain: MALEGALPLFQKRSKSSYIVAAILLITVKQIYSFFRVPTNLRHLPCVSFFAMAKSLLTCEPPYNRFKRITFPAIQEGNGFYVSKIPTGWTVYVANPVAAKQLLLKSNNFPKSHYGLDTIGEKSTAVQFVGRDNVVLSNGEIWKKQRKIMNPVFHRSMPIKTVASLVPLLFSAIEEANGRIMITPKMKDFTLDALGLTIFDFDFKALQGDPDNWTSIYRLITRSIFDPISYVFCALEPLLVYVYPKRRRSVDAVAKINAKFDQVISKKREELQNGIFSNKPDNEKDLVTLMLEAGMQEDVSITNEELRHNMAVLFLAGHDSTSNTLSFCLYHLAKNKRAQQKLREEIINILGDDDIDIVPSLEELKQMKYMNMVIKETLRLGMPLDLLTPRKTVEDTFVADTFIPKDTVIAVDAGALHRDPRSWKDPDEFVPERFEDDGEQNSHEGLTWVPFSNGTRQCIGMNFSLMEQRLTLTMLLRKYEVDLPKDSIHYDHIIYEQPSYVCPESLELIFTKRY
modifications: Rhizopus delemar
B4: CYPDN35: cytochrome P450 homolog A0A1X2GSL0 from Hesseltinella vesiculosa, codon-optimized (protein, listed as Hesseltinella vesiculosa)
chain: MLTQYLQFAADRLGQKKTLDQLQAVVTSKQGVVGITTAVALIALANHFRSPKIDRGCPQVEGKGWFGYATEEFRENPGKFLSEWHEKLGPVYGVKIFGHYATVVSGPYVREVFLDDRFSFIAAITKLFDPNLMTDSGHSSEQTAKNAADSIKRFLSPNLKHYTPRVIEHLNLGIEDWCGEVPAEGIEIENAFPFLQHLVARASASVFVGIELAKNEELVDSFQNMVSNISSGLKPKPWLEYFPSLTKLGMYMIGKTNPAVKRHRTQMANALRPEVDRRLKAMASNDTNWDRPDDMLQHILESYPAPEGLDVITYLINWMTQLIFAALHTTSENGKVVLYRLLQHPEVMEELYAEQNEVLAAAGYDESAGPEVFDREMLNKFVKLDSAVREACRLKNEFVGLPHENTTDKTLTLSNGAVILPGEFVYINQFVNHRDPELQAAIDDVHQFKPFRFVGTDHNAAKVSEGFVFFGMGRHACPGRWFAIQEIKTIVSLLLRKYKVEPIDPIVFSNQERDAFPIGPCRIRLTPRKAL
B5: CYPDN30: cytochrome P450 homolog A0A1X2H4N2 from Syncephalastrum racemosum, codon-optimized (protein, listed as Syncephalastrum racemosum)
chain: MNALLQRQDKMRDFLNTREGVYGITAAVAVVLISAYSLRRTVYTSRRKDEIATVPYKLPLKGSTEEYRADPRAFVEKYAKMYGPVYRAYLFGEMMTIVSDSYVREIFLNDNFNFFQAVKDRFDMVKLCNCANDEGHGIADIVKRCLNPRLDMYTERVNEQLEEASKEILTEVDTKGSQELMHMYILVQHMVARASATVFVGPELAKNSELIDSFKNMVIQVGSQLRPNPWLEPFPRLNSLRMWYIGKTSPVVRKHRLQLRSAVKPSIDDRLARQKSQGNAFQRPDDLLQDIIERHPEAKTKSDIYDYVVDTLTALIFAALHTTSENSTVVLYRLLQHPELMEELVAEQDAVLLEHGLPKDSSARVMTRQMIKKFEKLDSVCRESFRLRNDYLGLPHTYEGKKDIVLSNGAIIKPGEKAIINLWGNHHSGNTPQSTSQDYFGFDPYRFVKQDKQATKISEDFLFFGLGKHACPGRFFAVQEAKVLISVLLRNYKLSPVDPPYFATDDTMKIPAGRIRIERR
B6: CYPDN5: cytochrome P450 homolog A0A1X0RYU8 from Rhizopus microsporus, codon-optimized (protein, listed as Rhizopus microsporus)
chain: MELTEIAIETYHRALDKLVPILQKRSKRSYIGVAVALVVLERIYSFFRVPKSIRHIPAVPYFAMAKSFLTSEAPSSRHQRIVLPVIEKGNGIYVNKLPLEWTVNVATPTSAKHVLLKSEIYPKSESFLKLLGPQSPAVLFLGGKNVGFVNGDAWRKQRKIMNPAFHRSMPIQTMASVMPDFFSAIDKYGDEGIPISTIMRDFTLDVLGHTAFGFDFKALKGDPDNWTRTYHIINNALFNPTANMLTSLNPILSIISPERRRILEAIKKLNGMLEAMIKQKRQEVQSNAQAHAPENEKDLLTLMLEAQQRGEGLATDEELKHNVSGFFLAGHDTTSETLSFYFYNIAKNKDVQRKLREELNAVLGDKPVDVIPTLEQLKSMEYLNCTIKENLRLNGPADNVLPRVATEDMVVDGTPIPKGTVVNVDIHAIHHDTRYWKDPYKFVPERFLPGGEHDSHSGMTWLPFGNGARQCLGMNFSLAEQRLVIAMTVRKYDIEVPKDSIHYDHPILESSKTKAPASLKLIFRKRY
B7: CYPDN6: cytochrome P450 homolog A0A0B7NKC0 from Parasitella parasitica, codon-optimized (protein, listed as Parasitella parasitica)
chain: MAVLCLVLERIYASYAVPPSYLRHYPKVSLFDMLKSFYIKESVASRNKRLIAPLTNAGHGFYVCRIPLNWTIYVTDPLAAKTLLLKSENFPKNKAIFTALGDSSPVIKFMGKENVAMSNGEEWKKQRKIMNPAFHRSQPVKTFGNVMPDLFALIDQDPERVFITPKMKSFALDALGLSAFGFDFQSLKGDPEGWTRKYNVVISTLFNPFVNIFASLDFLVKYISPERRRVIKATDEFNSMLGELADKRRQEILDGEKKNIPENEKDLLTLMIEADIRDNIKTTTTELRHNMAIFFLAGHDSTANTLSLCLYNLAKHKHVQKKARQEVLAILGDEPLDVIPTAEDLKKLDYVNMVIKENLRRNGPADNLMSRDTQQDMNLNGTIIPKGSKVSVNVAAIHLNPKIWHDPENFIPERFEQGGEFEQHDGFTWIPFSNGSRQCLGLNFSLTEQRVVLCMILKRYEIDIPKDSIHYNEIVFDGAFTFAPQSLELSFKRRY
B8: CYPDN31: cytochrome P450 homolog A0A291C3B2 from Absidia caerulea, codon-optimized (protein, listed as Absidia caerulea)
chain: MLTEYIHHFINNFDQKKTMDQLQTMVSSKEGMIGLATAAVLMSGAAVYKSTRIERGCPQVPNQSYFMGSTKEYRNNPAAFIEKWEKELGPVYGAYLFGQYTTVVSGPQVREVFLNDDFDFIAGIRRDFDTNLLSNGGDLRDLPVHKFAGSIKKNLSPKLPFYTSRVIEHLKIGLKEFCGVVPDEGKEFDHVYPLVQHMVAKASASVFVGPELAKNEQLIDSFKNMVLEVGSELAPKPYLEFFPNLMRLRMWFIGKTSQKVKRHRDQLRAALAPQVEYRLKAMKENDSNWDRPNDFLQDILESGDIPAHVDVTDHCCDWMTQIIFAALHTTSENGTLSFYRLLDNPKVLEDLLEEQNQVLEDAGYDSSVGPEVFTREILNKFVKMDSVIRETSRLRNDYIGLPHKNISSKTITLSGGAMIRPGERAYVNAYSNHRDGTIQKVTDNLKSFEPYRFVNQDRNSTKIGEDFIFFGMGKHACPGRWFAIQEIKTIIAMMIRSYQLSALGPVTFPTDDYSRIPMGRFKIVPRK
B9: CYPDN29: cytochrome P450 homolog A0A068SBU5 from Lichtheimia corymbifera, codon-optimized (protein, listed as Lichtheimia corymbifera)
chain: MYTLVSFLKDQNIIAVLKNAIHAQQQGTTASSITILSLAVAITTFAVHRIRLYSVKEHGVPLVPYVLPFIGSSPEYRKDPKAFLEKWTAKFGPVFRAHIFGRVYTIISGHYVREVFLNEDFSFEVGMGKTFDGWLITDTKKSELFSTPLVRSMVMKHLAVDVKNYTPRAVEHLTIAAREMLGDIGESKELPHLYPLIQHMVSTAIASILVGLKICKDKDLLETFKNVAVDIGSELNPDSYLYEAFPTISRLRQWYLGKYGKAINKHQEHMLRVLGPEIDERLAAMERGDGGWERPEDILQGILETAKLTSDHPQRYMVPIKWFLILVFASIHTTSQNTTVAMYRLLQHPEVIDELLEEQNQVFEKHHGSNYDDHDITKLLTGEVIKDLVKLDSVCREAMRISSFYAELPHTYIGKSPLTMSNGTIINPGDDVLINGYTNHHDPDIQIDGGGDYAEFKPFRFVEKGRQSTRIGDDYLIFGQGKHACPGRWFAMQEMKTTISFLIRQYIITAKGDIMFLKGHRQKIPMGQVIFQKR

Tested on: thebaine
Assay: Demethylation of thebaine by new cytochrome P450 fungal and plant homologs co-expressed with CPRs in S. cerevisiae
Conditions: 0.5 mM thebaine, SC or DELFT media pH 7, 72 h, 30° C.; co-expressed with Cel_CPR_co, Tp_CPR_5866, Tp_CPR_DN10898 or POR1

Molecule | Northebaine production
B1 | −
B2 | +
B3 | +
B4 | +
B5 | +
B6 | +
B7 | +
B8 | +
B9 | +
